B1: Low-density lipoprotein receptor class A domain-containing protein 1 (Homo sapiens), Q5T700 (parent)
chain: MNKVFPQGENGYTAAESKAHPGGEAGGGHLCCSRRGACLSASLLLLLATVAALIALVTILGLPSCTPGAQACITLTNRTGFLCHDQRSCIPASGVCDGVRTCTHGEDEDESLCRDVPQSLPHFLVAHCGDPASWIYSDQKCDGTNNCGDCSDELSPVTVCPPCGPGWWRCPSTFFKYCDCIPRHLCRDHVQHCSDWSDEYACPGP
partner: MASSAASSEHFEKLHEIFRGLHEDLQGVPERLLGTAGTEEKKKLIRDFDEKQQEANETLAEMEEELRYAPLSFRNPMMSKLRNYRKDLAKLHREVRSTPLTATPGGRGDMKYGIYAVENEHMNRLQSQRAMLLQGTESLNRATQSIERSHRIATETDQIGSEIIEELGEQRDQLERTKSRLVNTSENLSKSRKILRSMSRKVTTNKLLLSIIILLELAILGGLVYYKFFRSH
B2: Microtubule-associated tumor suppressor candidate 2 (Homo sapiens), Q5JR59-3 (parent)
chain: MGHCCCKPYNCLQCLDKTNESALVKEKELSIELANIRDEVAFHTAKCEKLQKEKEELERRFEDEVKRLGWQQQAELQELEERLQLQFEAEMARLQEEHGDQLLSIRCQHQEQVEDLTASHDAALLEMENNHTVAITILQDDHDHKVQELMSTHELEKKELEENFEKLRLSLQDQVDTLTFQSQSLRDRARRFEEALRKNTEEQLEIALAPYQHLEEDMKSLKQVLEMKNQQIHEQEKKILELEKLAEKNIILEEKIQVLQQQNEDLKARIDQNTVVTRQLSEENANLQEYVEKETQEKKRLSRTNEELLWKLQTGDPTSPIKLSPTSPVYRGSSSGPSSPARVSTTPR
partner: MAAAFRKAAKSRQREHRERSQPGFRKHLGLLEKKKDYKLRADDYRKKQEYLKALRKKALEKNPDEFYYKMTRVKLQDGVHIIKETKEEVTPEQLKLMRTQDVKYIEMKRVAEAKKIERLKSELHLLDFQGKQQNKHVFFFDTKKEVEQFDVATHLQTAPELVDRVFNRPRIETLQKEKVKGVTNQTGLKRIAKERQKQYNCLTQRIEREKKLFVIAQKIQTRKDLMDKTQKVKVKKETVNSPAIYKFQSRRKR
B3: Zinc finger protein 488 (Homo sapiens), Q96MN9 (parent)
chain: MPEWPPCLSVAPALVITMAAGKGAPLSPSAENRWRLSEPELGRGCKPVLLEKTNRLGPEAAVGRAGRDVGSAELALLVAPGKPRPGKPLPPKTRGEQRQSAFTELPRMKDRQVDAQAQEREHDDPTGQPGAPQLTQNIPRGPAGSKVFSVWPSGARSEQRSAFSKPTKRPAERPELTSVFPAGESADALGELSGLLNTTDLACWGRLSTPKLLVGDLWNLQALPQNAPLCSTFLGAPTLWLEHTQAQVPPPSSSSTTSWALLPPTLTSLGLSTQNWCAKCNLSFRLTSDLVFHMRSHHKKEHAGPDPHSQKRREEALACPVCQEHFRERHHLSRHMTSHS
B4: Protein FAM9B (Homo sapiens), Q8IZU0 (parent)
chain: MAAWGKKHAGKDPVRDECEERNRFTETREEDVTDEHGEREPFAETDEHTGANTKKPEDTAEDLTAKRKRMKMDKTCSKTKNKSKHALRKKQLKRQKRDYIHSLKLLNVLEEYITDEQKEEEEEEGEEEELIRIFQEQQKKWQQYRSVRRERLKEMKLLRDQFVKALEDFEDLCDRVFSDEDSELDN
partner: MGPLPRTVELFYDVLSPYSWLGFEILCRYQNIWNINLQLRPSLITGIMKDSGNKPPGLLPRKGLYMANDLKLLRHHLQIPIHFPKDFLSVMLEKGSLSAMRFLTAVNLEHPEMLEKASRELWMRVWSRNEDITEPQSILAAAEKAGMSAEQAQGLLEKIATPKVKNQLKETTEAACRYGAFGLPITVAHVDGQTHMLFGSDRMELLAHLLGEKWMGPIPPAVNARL
B5: Isoform 1 of Targeting protein for Xklp2 (Homo sapiens), Q9ULW0-1 (parent)
chain: MSQVKSSYSYDAPSDFINFSSLDDEGDTQNIDSWFEEKANLENKLLGKNGTGGLFQGKTPLRKANLQQAIVTPLKPVDNTYYKEAEKENLVEQSIPSNACSSLEVEAAISRKTPAQPQRRSLRLSAQKDLEQKEKHHVKMKAKRCATPVIIDEILPSKKMKVSNNKKKPEEEGSAHQDTAEKNASSPEKAKGRHTVPCMPPAKQKFLKSTEEQELEKSMKMQQEVVEMRKKNEEFKKLALAGIGQPVKKSVSQVTKSVDFHFRTDERIKQHPKNQEEYKEVNFTSELRKHPSSPARVTKGCTIVKPFNLSQGKKRTFDETVSTYVPLAQQVEDFHKRTPNRYHLRSKKDDINLLPSKSSVTKICRDPQTPVLQTKHRARAVTCKSTAELEAEELEKLQQYKFKARELDPRILEGGPILPKKPPVKPPTEPIGFDLEIEKRIQERESKKKTEDEHFEFHSRPCPTKILEDVVGVPEKKVLPITVPKSPAFALKNRIRMPTKEDEEEDEPVVIKAQPVPHYGVPFKPQIPEARTVEICPFSFDSRDKERQLQKEKKIKELQKGEVPKFKALPLPHFDTINLPEKKVKNVTQIEPFCLETDRRGALKAQTWKHQLEEELRQQKEAACFKARPNTVISQEPFVPKKEKKSVAEGLSGSLVQEPFQLATEKRAKERQELEKRMAEVEAQKAQQLEEARLQEEEQKKEELARLRRELVHKANPIRKYQGLEIKSSDQPLTVPVSPKFSTRFHC
partner: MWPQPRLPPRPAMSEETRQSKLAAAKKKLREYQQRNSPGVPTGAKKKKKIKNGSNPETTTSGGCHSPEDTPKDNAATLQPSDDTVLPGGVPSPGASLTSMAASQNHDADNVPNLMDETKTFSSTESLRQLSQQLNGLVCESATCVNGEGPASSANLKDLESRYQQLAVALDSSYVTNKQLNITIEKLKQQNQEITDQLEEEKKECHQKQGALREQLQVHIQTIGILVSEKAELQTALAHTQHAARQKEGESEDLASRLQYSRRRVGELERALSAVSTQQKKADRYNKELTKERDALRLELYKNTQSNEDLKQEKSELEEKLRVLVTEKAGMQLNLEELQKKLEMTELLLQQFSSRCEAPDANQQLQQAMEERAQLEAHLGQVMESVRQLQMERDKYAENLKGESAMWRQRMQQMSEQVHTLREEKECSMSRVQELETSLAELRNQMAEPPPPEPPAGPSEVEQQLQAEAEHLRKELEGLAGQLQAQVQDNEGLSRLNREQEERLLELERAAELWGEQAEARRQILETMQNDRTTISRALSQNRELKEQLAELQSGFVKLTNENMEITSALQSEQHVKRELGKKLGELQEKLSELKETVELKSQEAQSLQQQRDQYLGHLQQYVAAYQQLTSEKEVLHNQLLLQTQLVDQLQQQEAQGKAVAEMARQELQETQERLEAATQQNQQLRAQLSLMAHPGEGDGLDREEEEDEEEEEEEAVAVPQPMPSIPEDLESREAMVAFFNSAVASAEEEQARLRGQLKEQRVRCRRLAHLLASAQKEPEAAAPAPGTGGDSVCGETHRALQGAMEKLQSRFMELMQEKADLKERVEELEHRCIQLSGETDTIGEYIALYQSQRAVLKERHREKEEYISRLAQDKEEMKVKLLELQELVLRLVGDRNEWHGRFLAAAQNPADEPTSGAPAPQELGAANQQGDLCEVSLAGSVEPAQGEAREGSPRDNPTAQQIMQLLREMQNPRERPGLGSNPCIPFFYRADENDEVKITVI

The first assay covers variants of B1. The settings on record: with vti1b_human VTI1B.
Regarding E108K, the “effect of a mutation on the interaction” value is “with no effect”.

A further assay covers variants of B2. The following applies: with utp11_human UTP11, Q9Y3A2.
In the case of A89V, the “effect of a mutation on the interaction” value is given as “with no effect”.

Variants of B3 are the subject of the next assay. The settings on record: with rbpms_human RBPMS.
As for C230R, the “effect of a mutation on the interaction” value is given as “with no effect”.
Same read-out and setting: next, A72V: “with no effect”.

In a further assay the parent is B4. The following applies: with gstk1_human GSTK1, Q9Y2Q3.
With R23H, the “effect of a mutation on the interaction” value was “with no effect”.

Variants of B5 are the subject of a further assay. The following applies: with goga2_human GOLGA2, Q08379.
Turning to T464N, the “effect of a mutation on the interaction” value is listed as “with no effect”.

These data come from IntAct's records for PubMed 31515488.
